For seven substances, percent of parent results are on record in PMC3476979.

The test concerns the target endogenous phospho-IKKα/β, O15111;O14920. Briefly: co-immunoprecipitation (IP with anti-Tax mab, blot with anti-phospho-IKK), band quantified as Phospho-IKK/Tax. Conditions: 293 T cells, parent: 100.

With “wild-type Tax protein of Human T-lymphotropic virus type 1 (HTLV-1), C-terminal 6His tag (Tax-His) (from UniProt P03409) K4-8R”, the percent of parent was determined as 2 % WT.
Consider “wild-type Tax protein of Human T-lymphotropic virus type 1 (HTLV-1), C-terminal 6His tag (Tax-His) (from UniProt P03409) K7R”, for which the percent of parent was 95 % WT.
For the substance “wild-type Tax protein of Human T-lymphotropic virus type 1 (HTLV-1), C-terminal 6His tag (Tax-His) (from UniProt P03409) K7-8R”, the percent of parent was 27 % WT.
Take “wild-type Tax protein of Human T-lymphotropic virus type 1 (HTLV-1), C-terminal 6His tag (Tax-His) (from UniProt P03409) K1-10R”: the percent of parent was 3 % WT.
With “wild-type Tax protein of Human T-lymphotropic virus type 1 (HTLV-1), C-terminal 6His tag (Tax-His) (from UniProt P03409) P79A; Q81A”, the percent of parent worked out at 84 % WT.
In the case of “wild-type Tax protein of Human T-lymphotropic virus type 1 (HTLV-1), C-terminal 6His tag (Tax-His) (from UniProt P03409) M22”, the percent of parent was < 1 % WT.
As to “wild-type Tax protein of Human T-lymphotropic virus type 1 (HTLV-1), C-terminal 6His tag (Tax-His) (from UniProt P03409) K6-8R”, the percent of parent turned out to be 10 % WT.
